Test results published in publication PMC6047819, “Small-angle X-ray scattering study of the kinetics of light-dark transition in a LOV protein” (PLoS ONE, 2018).

How the values were obtained:
[1] = target: the molecule itself; assay: SAXS; steady state, fully populated light state (continuous blue-light LED, 450 nm); beamline BM29; 20°C; 10 mM Tris, 10 mM NaCl, pH 7; data of 2.5 and 6.1 mg/mL merged; molecular mass from QR after Rambo and Tainer
[2] = target: the molecule itself; assay: crystal structure; dark-state crystal structure of the double mutant, FMN bound (PDB 6GG9)

| Protein | stoichiometry N [1] | binding result [2] |
| --- | --- | --- |
| PpSB1-LOV-R66I (natural protein, Pseudomonas putida, PpSB1-LOV, short LOV protein of Pseudomonas putida: LOV core domain flanked by N- and C-terminal helices; mutant R66I; It says that the N-terminal 20 and the C-terminal 8-9 amino acids are disordered in the wild-type crystal structures; also called PpSB1-R66I; PpSB1-LOV mutant R66I; source: purified (Ni-NTA Superflow, SEC on Superdex 200)) MINAQLLQSMVDASNDGIVVAEKEGDDTILIYVNAAFEYLTGYSRDEILYQDCRFLQGDDRDQLGIARIRKAMAEGRPCREVLRNYRKDGSAFWNELSITPVKSDFDQRTYFIGIQKDVSRQVELERELAELRARPKPDERA | 2 | – |
| PpSB1-LOV-R61H/R66I (natural protein, Pseudomonas putida, PpSB1-LOV, short LOV protein of Pseudomonas putida; double mutant R61H/R66I; dark-state crystal structure PDB 6GG9; also called PpSB1-R61H/R66I-LOV; double mutant) MINAQLLQSMVDASNDGIVVAEKEGDDTILIYVNAAFEYLTGYSRDEILYQDCRFLQGDDHDQLGIARIRKAMAEGRPCREVLRNYRKDGSAFWNELSITPVKSDFDQRTYFIGIQKDVSRQVELERELAELRARPKPDERA | – | binds |
